The record followed here is the supplement of paper PMC10567573.

The series is described as follows: protein stability index of a GFP-peptide fusion (GPS, HEK-293T) (PSI 1-6); higher = more stable.
Where [1] appears, read: treatment: DMSO, c terminus: a fixed tail appended.
Setting [2] is: treatment: MLN4924 1 uM, 8 h, c terminus: a fixed tail appended.

± gives the standard deviation.
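Also: 24-mer peptide tiles fused after GFP, lentivirally expressed, FACS-sorted into six equal bins by GFP/DsRed ratio, decoded by Illumina sequencing, PSI is the read-weighted mean bin number.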

Consider CFRFRQSSGRRVSLHCLLDQFDKD [DENND6A], for which the protein stability index is, setting by setting: under setting [1], 2.5 ± 0.73; under setting [2], 2.41 ± 0.53.
The like results for CGKSFSRSSHLVIHERTHERERLY [ZNF263] were, in that order, 2.71 ± 0.13 and 2.86 ± 0.33.
The like results for CIENNIDLQVNRNFSLATNTKYSV [R3HDM1] were, in that order, 2.59 ± 0.24 and 2.31 ± 0.43.
For the sequence CNFSIPEELEFQYRRVNELLLSIL [ZER1], the protein stability index is 2.34 ± 0.44 under setting [1] and 2.32 ± 0.42 under setting [2].
The like results for CPLCTSDRGSCVSTTEGIQLAKEL [RHOBTB3] were, in that order, 3.23 ± 0.29 and 3.58 ± 0.38.
The like results for CPSPEALSPEPPVYSLQDFDTLAT [PRKX] were, in that order, 4.61 ± 0.26 and 4.84 ± 0.053.
The like results for CRCVASPPPDAAATAASSSASSPA [SLC25A25] were, in that order, 4.52 ± 0.22 and 4.35 ± 0.29.
Consider CSKSYSRRSFLIEHQRSHTGERPH [ZSCAN9], for which the protein stability index turned out to be 3.42 ± 0.073 under setting [1] and 3.52 ± 0.36 under setting [2].
The like results for CSQYDRVYCGAGVQKEHEEYMKNL [PCMTD2] were, in that order, 2.93 ± 0.61 and 2.6 ± 0.55.
In the case of CSTNKPEGYRVSQALRENTYPFLA [FAF2], the protein stability index came out at 2.54 ± 0.2 under setting [1] and 2.53 ± 0.4 under setting [2].
With CVDATRETNRLGRLINHSKCGNCQ [KMT5A], the protein stability index turned out to be 3.48 ± 0.41 under setting [1] and 3.84 ± 0.27 under setting [2].
The like results for CYKGHLEMVRFLLEAGADQEHKTD [ANKRD17] were, in that order, 2.91 ± 0.13 and 3.02 ± 0.32.
The like results for CYLELFPAHLYFQAHGSEGLTFQG [PLEKHN1] were, in that order, 2.89 ± 0.53 and 2.31 ± 0.26.
The like results for DAILYYYQSGGRIRRPVNVPIDIF [KCNA3] were, in that order, 2.2 ± 0.61 and 2.58 ± 0.76.
Take DARMLDHLTKKDLRVHLKMVDSFH [PPFIA4]: the protein stability index was 2.48 ± 0.37 under setting [1] and 2.78 ± 0.44 under setting [2].
Regarding DCMLSEEGATLLLRGLCANTVLRF [LRRC45], the protein stability index came to 2.44 ± 0.48 under setting [1] and 2.42 ± 0.4 under setting [2].
The like results for DDFRSKYQTEQSLRLLVESDINSI [KRT34] were, in that order, 3.77 ± 0.098 and 3.94 ± 0.27.
The like results for DDLRINLWHLAITDRSFNIVDIKP [PPP2R2C] were, in that order, 2.19 ± 0.2 and 2.17 ± 0.19.
As to DDPSLRKTHSSPALSQGHVTGSKT [PSD2], the protein stability index is, setting by setting: under setting [1], 5.5 ± 0.32; under setting [2], 5.5 ± 0.33.
The like results for DEHEHPLTSELDPEKEQEIETIKI [MIA2] were, in that order, 5.33 ± 0.42 and 5.36 ± 0.42.
The like results for DENLDRMVPISKQPKEKIQAIIES [NOL4L] were, in that order, 4.88 ± 0.38 and 4.83 ± 0.21.
The like results for DETGITVASLERFSTYTSDKDENK [ZC3H15] were, in that order, 5.14 ± 0.3 and 5.29 ± 0.087.
For the sequence DFTTAAEDQPINLCDKLPPATALG [NOL4L], the protein stability index is, setting by setting: under setting [1], 4.83 ± 0.18; under setting [2], 4.78 ± 0.1.
The like results for DGHIDINEFLEAFRLVEKSCPEGD [PPEF2] were, in that order, 4.67 ± 0.37 and 4.71 ± 0.17.
The like results for DGKLLWEQELYNNFVYNSPRGYFH [WASL] were, in that order, 2.07 ± 0.24 and 2.27 ± 0.41.
Turning to DGTAENGIHPLSSSEVDELIHKAD [PALM], the protein stability index reads like this: under setting [1], 5.38 ± 0.2; under setting [2], 5.35 ± 0.42.
Consider DGVKESSESTNTTIEDEDTKVRKQ [CAMK2A], for which the protein stability index was determined as 5.65 ± 0.13 under setting [1] and 5.59 ± 0.29 under setting [2].
The like results for DHLTTVLYLQLAICSSLQNLEKTI [C8orf76] were, in that order, 3.21 ± 0.57 and 3.41 ± 0.35.
For the sequence DHVDLSLSCTLVPRSGEQAEGSPG [CDKN1A], the protein stability index amounted to 4.91 ± 0.17 under setting [1] and 5.08 ± 0.23 under setting [2].
The like results for DIELGCSTPLMEAAQEGHLELVKY [ANKRD17] were, in that order, 4.03 ± 0.29 and 4.18 ± 0.27.
The like results for DITAYLFGFFFGRTPLIKLSPKKT [CDS1] were, in that order, 3.11 ± 0.64 and 2.73 ± 0.46.
The like results for DKCMVCGGDGSGCSKQSGSFRKFR [ADAMTS4] were, in that order, 2.14 ± 0.11 and 3.25 ± 0.85.
As to DKITGQSLGYGFVNYSDPNDADKA [ELAVL3], the protein stability index is 4.81 ± 0.24 under setting [1] and 4.82 ± 0.15 under setting [2].
The like results for DLDFKHHNYKEMRQLMKVVNEMCP [CPXM2] were, in that order, 2.93 ± 0.21 and 2.66 ± 0.31.
Consider DLEAVVPQNGSETGWARKGLGNTW [ATP23], for which the protein stability index by setting is: under setting [1], 3.42 ± 0.2; under setting [2], 3.38 ± 0.44.
The like results for DLHFKMFDVGGQRSERKKWIHCFE [GNAI1] were, in that order, 1.73 ± 0.25 and 2.64 ± 0.35.
The like results for DLLCKTSHLSDTGISALVEIPKNC [WDR41] were, in that order, 2.8 ± 0.23 and 2.78 ± 0.34.
The like results for DLTSEDQIVLLKSSAIEVIMLRSN [VDR] were, in that order, 2.28 ± 0.21 and 2.05 ± 0.34.
Sequence DMSWTCGNQDYKYRVSDVTKAGHS [VDR] yielded a protein stability index under setting [1] of 2.73 ± 0.15 and a protein stability index under setting [2] of 2.74 ± 0.095.
The like results for DNDPRDLIGDFSKGYLFHTVAGKH [CDC25A] were, in that order, 3.2 ± 0.13 and 3.41 ± 0.19.
The like results for DPSVRLKIASLLGLLSKTAGFSPD [INTS4] were, in that order, 2.57 ± 0.46 and 2.38 ± 0.26.
The like results for DQEHNVAALKQAIKDKEAPLHVAQ [TEKT4] were, in that order, 5.11 ± 0.19 and 5.18 ± 0.15.
Take DQFDKDLPVYLKKDPAYFYGYVYF [DENND6A]: the protein stability index stood at 2.46 ± 0.71 under setting [1] and 2.19 ± 0.59 under setting [2].
The like results for DQHRLYKQIKAGAYDFPSPEWDTV [CAMK2A] were, in that order, 3.29 ± 0.23 and 3.3 ± 0.24.
The like results for DQLRSGSPPKSPRTTVHDKSAHQT [DNAJC4] were, in that order, 5.26 ± 0.25 and 5.4 ± 0.14.
Sequence DQPVMAVKTGEDGSNLDDAKGLAE [FANCE] had a protein stability index under setting [1] of 5.44 ± 0.14 and a protein stability index under setting [2] of 5.51 ± 0.26.
The like results for DQTGSKSSNLLDLKNPFFRYTGTT [CARM1] were, in that order, 3.44 ± 0.18 and 3.28 ± 0.13.
DQVMEFSWSALWNITDETPDNCEM [ZER1]: the protein stability index stood at 4.12 ± 0.27 under setting [1] and 4.04 ± 0.5 under setting [2].
The like results for DREVAIYSKESIIFGASSVDFSLS [GNB5] were, in that order, 2.98 ± 0.17 and 3.2 ± 0.27.
The like results for DSLKFAVLMWLLTYVGALFNGLTL [RTN1] were, in that order, 3.69 ± 1.4 and 3.378 ± 0.013.
The like results for DSTMRILSNLVQHILKKYYGNGMR [RTP4] were, in that order, 2.45 ± 0.73 and 2.46 ± 0.41.
DSYTATGYGRAPGGLSLHDYKLLK [JUNB] had a protein stability index under setting [1] of 3.36 ± 0.24 and a protein stability index under setting [2] of 3.39 ± 0.21.
Regarding DTCRTQLVWLVRELVKSGVLGADG [INTS3], the protein stability index is, setting by setting: under setting [1], 2.51 ± 0.54; under setting [2], 2.37 ± 0.24.
The like results for DTQYGSSVDIWAIGCVFAELLTGQ [CDKL4] were, in that order, 2.8 ± 0.59 and 2.37 ± 0.46.
On to DTRLRYSFFVPRPTPSTPRPTPQD [ADAMTS4], for which the protein stability index by setting is: under setting [1], 3.64 ± 0.15; under setting [2], 3.74 ± 0.089.
The like results for DVDEDEPGGLVGSADVVSPSGHSD [PPFIA4] were, in that order, 5.66 ± 0.36 and 5.47 ± 0.12.
The like results for DVEAWFNTQTEELNQQVVSSSEQL [KRT36] were, in that order, 4.65 ± 0.22 and 4.73 ± 0.15.
Turning to DVIGDEICCWSFYGQGRKIAEVCC [KCTD10], the protein stability index under setting [1] was 2.42 ± 0.92 and the protein stability index under setting [2] amounted to 2.33 ± 0.54.
The like results for DVNEQVMQVLGPEDLQSIIYKLEE [CEP70] were, in that order, 3.7 ± 0.21 and 3.7 ± 0.24.
Turning to DWYQRQRPSEIKDYSPYFKTIEDL [KRT16], the protein stability index is 2.74 ± 0.28 under setting [1] and 2.9 ± 0.32 under setting [2].
The like results for DYPYSPPAFRFLTKMWHPNIYETG [CDC34] were, in that order, 2.17 ± 0.62 and 1.94 ± 0.28.
The like results for DYQPTQAGRLMRPSVKYLSHPRVQ [RNF180] were, in that order, 3.34 ± 0.22 and 3.4 ± 0.12.
The like results for EAALNSKDAALATALGDKKSLEGD [LMNB1] were, in that order, 5.52 ± 0.25 and 5.5 ± 0.078.
As for EAEEEELRAELTKVEEEIVTLRQV [TPD52L2], the protein stability index is, setting by setting: under setting [1], 4.25 ± 0.26; under setting [2], 4.63 ± 0.51.
Regarding EAEVTILFYFFLYQYCSIHCSDRK [CSTF3], the protein stability index by setting is: under setting [1], 2.57 ± 0.56; under setting [2], 2.53 ± 0.15.
As to EAGGRFVAFSGEGQSLRKKGRKP [UFD1], the protein stability index turned out to be 2.75 ± 0.78 (treatment: DMSO, c terminus: native) and 3.29 ± 0.79 (treatment: MLN4924 1 uM, 8 h, c terminus: native).
Consider EAQRASFLQNAVLAYVQASPVRTL [LRRC45], for which the protein stability index is, setting by setting: under setting [1], 2.41 ± 0.29; under setting [2], 2.3 ± 0.26.
The like results for EDLEDLGAVAPPVSGDLTKEDIDL [NFE2L1] were, in that order, 5.71 ± 0.4 and 5.3 ± 0.76.
EDPVPGMLFFLPPGQHLSDYSQLN [FBXO34]: the protein stability index reads like this: under setting [1], 3.03 ± 0.35; under setting [2], 3.11 ± 0.38.
Consider EDSLAALSSVPSEAQISDPFAPEP [SNAP91], for which the protein stability index turned out to be 5.33 ± 0.34 under setting [1] and 5.34 ± 0.18 under setting [2].
The like results for EEEKEPLAVDSWWLDPGHTAVAQA [SERTAD1] were, in that order, 4.8 ± 0.27 and 4.88 ± 0.23.
The like results for EEEKKKMEESKAKFENLCKLMKEI [HSP90AB1] were, in that order, 4.43 ± 0.36 and 4.58 ± 0.49.
